Measurements: the RNAGym collection of RNA variant scans (doi:10.1021/acssynbio.7b00057)

B1: Pistol ribozyme (parent)
chain: GGGUCGUUGUUCCAUAAUCGCGUGGAUAUGGCACGCAAGUUUCUACCGGGCACCGUAAAUGUCCGACUGGAGCCGUUCGGGCGGCUAUAAACAGACCUCAGGCCCGAAGCGUGGCGGCACCUGCCGCCGGUGGUAAAAAAGAUCGGAAGAGCACACGUCU

Variants of: B1
Assay: aptazyme ON/OFF ratio, guanine; higher = stronger switching; co-transcriptional cleavage with and without guanine

Variant | aptazyme ON/OFF ratio
GGGUCGUCUAUUUAUAAUCGCGUGGAUAUGGCACGCAAGUUUCUACCGGGCACCGUAAAUGUCCGACUGGAGCCGUUCGGGCGGCUAUAAACAGACCUCAGGCCCGAAGCGUGGCGGCACCUGCCGCCGGUGGUAAAAAAGAUCGGAAGAGCACACGUCU [U8C G9U U10A C12U C13U] | 1.09
GGGUCGUCUAUUGAUAAUCGCGUGGAUAUGGCACGCAAGUUUCUACCGGGCACCGUAAAUGUCCGACUGGAGCCGUUCGGGCGGCUAUAAACAGACCUCAGGCCCGAAGCGUGGCGGCACCUGCCGCCGGUGGUAAAAAAGAUCGGAAGAGCACACGUCU [U8C G9U U10A C12U C13G] | 1.2
GGGUCGUCUAUUAAUAAUCGCGUGGAUAUGGCACGCAAGUUUCUACCGGGCACCGUAAAUGUCCGACUGGAGCCGUUCGGGCGGCUAUAAACAGACCUCAGGCCCGAAGCGUGGCGGCACCUGCCGCCGGUGGUAAAAAAGAUCGGAAGAGCACACGUCU [U8C G9U U10A C12U C13A] | 1.18
GGGUCGUCUAACCAUAAUCGCGUGGAUAUGGCACGCAAGUUUCUACCGGGCACCGUAAAUGUCCGACUGGAGCCGUUCGGGCGGCUAUAAACAGACCUCAGGCCCGAAGCGUGGCGGCACCUGCCGCCGGUGGUAAAAAAGAUCGGAAGAGCACACGUCU [U8C G9U U10A U11A] | 2.18
GGGUCGUCUAAGAAUAAUCGCGUGGAUAUGGCACGCAAGUUUCUACCGGGCACCGUAAAUGUCCGACUGGAGCCGUUCGGGCGGCUAUAAACAGACCUCAGGCCCGAAGCGUGGCGGCACCUGCCGCCGGUGGUAAAAAAGAUCGGAAGAGCACACGUCU [U8C G9U U10A U11A C12G C13A] | 1.2
GGGUCGUCUAAGGAUAAUCGCGUGGAUAUGGCACGCAAGUUUCUACCGGGCACCGUAAAUGUCCGACUGGAGCCGUUCGGGCGGCUAUAAACAGACCUCAGGCCCGAAGCGUGGCGGCACCUGCCGCCGGUGGUAAAAAAGAUCGGAAGAGCACACGUCU [U8C G9U U10A U11A C12G C13G] | 1.16
GGGUCGUCUAAACAUAAUCGCGUGGAUAUGGCACGCAAGUUUCUACCGGGCACCGUAAAUGUCCGACUGGAGCCGUUCGGGCGGCUAUAAACAGACCUCAGGCCCGAAGCGUGGCGGCACCUGCCGCCGGUGGUAAAAAAGAUCGGAAGAGCACACGUCU [U8C G9U U10A U11A C12A] | 1.39
GGGUCGUCUAAGCAUAAUCGCGUGGAUAUGGCACGCAAGUUUCUACCGGGCACCGUAAAUGUCCGACUGGAGCCGUUCGGGCGGCUAUAAACAGACCUCAGGCCCGAAGCGUGGCGGCACCUGCCGCCGGUGGUAAAAAAGAUCGGAAGAGCACACGUCU [U8C G9U U10A U11A C12G] | 1.32
GGGUCGUCUAUCGAUAAUCGCGUGGAUAUGGCACGCAAGUUUCUACCGGGCACCGUAAAUGUCCGACUGGAGCCGUUCGGGCGGCUAUAAACAGACCUCAGGCCCGAAGCGUGGCGGCACCUGCCGCCGGUGGUAAAAAAGAUCGGAAGAGCACACGUCU [U8C G9U U10A C13G] | 1.06
GGGUCGUCUAUCAAUAAUCGCGUGGAUAUGGCACGCAAGUUUCUACCGGGCACCGUAAAUGUCCGACUGGAGCCGUUCGGGCGGCUAUAAACAGACCUCAGGCCCGAAGCGUGGCGGCACCUGCCGCCGGUGGUAAAAAAGAUCGGAAGAGCACACGUCU [U8C G9U U10A C13A] | 1.29
GGGUCGUCUAUCUAUAAUCGCGUGGAUAUGGCACGCAAGUUUCUACCGGGCACCGUAAAUGUCCGACUGGAGCCGUUCGGGCGGCUAUAAACAGACCUCAGGCCCGAAGCGUGGCGGCACCUGCCGCCGGUGGUAAAAAAGAUCGGAAGAGCACACGUCU [U8C G9U U10A C13U] | 1.37
GGGUCGUCUAUGAAUAAUCGCGUGGAUAUGGCACGCAAGUUUCUACCGGGCACCGUAAAUGUCCGACUGGAGCCGUUCGGGCGGCUAUAAACAGACCUCAGGCCCGAAGCGUGGCGGCACCUGCCGCCGGUGGUAAAAAAGAUCGGAAGAGCACACGUCU [U8C G9U U10A C12G C13A] | 1.27
GGGUCGUCUAUGUAUAAUCGCGUGGAUAUGGCACGCAAGUUUCUACCGGGCACCGUAAAUGUCCGACUGGAGCCGUUCGGGCGGCUAUAAACAGACCUCAGGCCCGAAGCGUGGCGGCACCUGCCGCCGGUGGUAAAAAAGAUCGGAAGAGCACACGUCU [U8C G9U U10A C12G C13U] | 1.17
GGGUCGUCUAUGGAUAAUCGCGUGGAUAUGGCACGCAAGUUUCUACCGGGCACCGUAAAUGUCCGACUGGAGCCGUUCGGGCGGCUAUAAACAGACCUCAGGCCCGAAGCGUGGCGGCACCUGCCGCCGGUGGUAAAAAAGAUCGGAAGAGCACACGUCU [U8C G9U U10A C12G C13G] | 1.13
GGGUCGUCUAUUCAUAAUCGCGUGGAUAUGGCACGCAAGUUUCUACCGGGCACCGUAAAUGUCCGACUGGAGCCGUUCGGGCGGCUAUAAACAGACCUCAGGCCCGAAGCGUGGCGGCACCUGCCGCCGGUGGUAAAAAAGAUCGGAAGAGCACACGUCU [U8C G9U U10A C12U] | 1.56
GGGUCGUCUAAAGAUAAUCGCGUGGAUAUGGCACGCAAGUUUCUACCGGGCACCGUAAAUGUCCGACUGGAGCCGUUCGGGCGGCUAUAAACAGACCUCAGGCCCGAAGCGUGGCGGCACCUGCCGCCGGUGGUAAAAAAGAUCGGAAGAGCACACGUCU [U8C G9U U10A U11A C12A C13G] | 1.1
GGGUCGUCUAAAUAUAAUCGCGUGGAUAUGGCACGCAAGUUUCUACCGGGCACCGUAAAUGUCCGACUGGAGCCGUUCGGGCGGCUAUAAACAGACCUCAGGCCCGAAGCGUGGCGGCACCUGCCGCCGGUGGUAAAAAAGAUCGGAAGAGCACACGUCU [U8C G9U U10A U11A C12A C13U] | 1.33
GGGUCGUCUAAAAAUAAUCGCGUGGAUAUGGCACGCAAGUUUCUACCGGGCACCGUAAAUGUCCGACUGGAGCCGUUCGGGCGGCUAUAAACAGACCUCAGGCCCGAAGCGUGGCGGCACCUGCCGCCGGUGGUAAAAAAGAUCGGAAGAGCACACGUCU [U8C G9U U10A U11A C12A C13A] | 1.28
